{"source": "the supplement of paper PMC9112550", "about": "“Optimization of the antimicrobial peptide Bac7 by deep mutational scanning” (BMC Biology, 2022);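 further: peptides expressed intracellularly from a pBAD plasmid library in pooled LB shake-flask culture, induced with 0.3% L-arabinose, DNA abundance read by NGS, three biological replicates, DESeq2 with apeglm shrinkage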", "data": [{"system": "Escherichia coli TOP10", "test": "shrunken log2 fold change of peptide-encoding DNA abundance (4.5 h post-induction vs induction); higher = less antimicrobial activity (less host growth inhibition)", "details": "time post-induction: 4.5 h; library: site-saturation at positions 5, 18, 19, 20", "values": [{"sequence": "RRIRHRPPRLPRPRPRPCPPPRP", "shrunken log2 fold change": -0.845}, {"sequence": "RRIRNRPPRLPRPRPRPENSPRP", "shrunken log2 fold change": -0.00522}, {"sequence": "RRIRKRPPRLPRPRPRPVVFPRP", "shrunken log2 fold change": -0.0936}, {"sequence": "RRIRKRPPRLPRPRPRPAIHPRP", "shrunken log2 fold change": -0.0696}, {"sequence": "RRIRHRPPRLPRPRPRPHMKPRP", "shrunken log2 fold change": 0.181}, {"sequence": "RRIRKRPPRLPRPRPRPSRQPRP", "shrunken log2 fold change": 0.192}, {"sequence": "RRIRQRPPRLPRPRPRPKPRPRP", "shrunken log2 fold change": 0.309}, {"sequence": "RRIRQRPPRLPRPRPRPSRTPRP", "shrunken log2 fold change": -0.29}, {"sequence": "RRIRWRPPRLPRPRPRPHKRPRP", "shrunken log2 fold change": 0.0239}, {"sequence": "RRIRKRPPRLPRPRPRPDVMPRP", "shrunken log2 fold change": -0.0462}, {"sequence": "RRIRYRPPRLPRPRPRPGRCPRP", "shrunken log2 fold change": -0.102}, {"sequence": "RRIRARPPRLPRPRPRPFIAPRP", "shrunken log2 fold change": 0.0626}, {"sequence": "RRIRNRPPRLPRPRPRPQLVPRP", "shrunken log2 fold change": -0.0147}, {"sequence": "RRIRERPPRLPRPRPRPWIWPRP", "shrunken log2 fold change": 0.164}, {"sequence": "RRIRVRPPRLPRPRPRPCRLPRP", "shrunken log2 fold change": -0.0106}, {"sequence": "RRIRIRPPRLPRPRPRPFEPPRP", "shrunken log2 fold change": -0.204}, {"sequence": "RRIRVRPPRLPRPRPRPTIRPRP", "shrunken log2 fold change": 0.0315}, {"sequence": "RRIRERPPRLPRPRPRPNRHPRP", "shrunken log2 fold change": -0.516}, {"sequence": "RRIRQRPPRLPRPRPRPRKSPRP", "shrunken log2 fold change": -0.172}, {"sequence": "RRIRERPPRLPRPRPRPQMCPRP", "shrunken log2 fold change": 0.0746}, {"sequence": "RRIRHRPPRLPRPRPRPNHTPRP", "shrunken log2 fold change": -1.04}, {"sequence": "RRIRARPPRLPRPRPRPFAEPRP", "shrunken log2 fold change": 0.762}, {"sequence": "RRIRSRPPRLPRPRPRPDNAPRP", "shrunken log2 fold change": -0.201}, {"sequence": "RRIRARPPRLPRPRPRPQHHPRP", "shrunken log2 fold change": -0.298}, {"sequence": "RRIRKRPPRLPRPRPRPPMSPRP", "shrunken log2 fold change": 0.328}, {"sequence": "RRIRSRPPRLPRPRPRPQMFPRP", "shrunken log2 fold change": -0.0871}, {"sequence": "RRIRVRPPRLPRPRPRPFQAPRP", "shrunken log2 fold change": -0.127}, {"sequence": "RRIRLRPPRLPRPRPRPSKGPRP", "shrunken log2 fold change": -0.123}, {"sequence": "RRIRFRPPRLPRPRPRPNNAPRP", "shrunken log2 fold change": -0.271}, {"sequence": "RRIRCRPPRLPRPRPRPFFRPRP", "shrunken log2 fold change": -0.116}, {"sequence": "RRIRKRPPRLPRPRPRPVESPRP", "shrunken log2 fold change": 0.0629}, {"sequence": "RRIRFRPPRLPRPRPRPVVFPRP", "shrunken log2 fold change": -0.119}, {"sequence": "RRIRWRPPRLPRPRPRPEVSPRP", "shrunken log2 fold change": 0.269}, {"sequence": "RRIRPRPPRLPRPRPRPAPHPRP", "shrunken log2 fold change": 0.402}, {"sequence": "RRIRERPPRLPRPRPRPKKVPRP", "shrunken log2 fold change": -0.178}, {"sequence": "RRIRWRPPRLPRPRPRPGPHPRP", "shrunken log2 fold change": -0.0302}, {"sequence": "RRIRQRPPRLPRPRPRPMFPPRP", "shrunken log2 fold change": -0.181}, {"sequence": "RRIRLRPPRLPRPRPRPTTSPRP", "shrunken log2 fold change": -0.0271}, {"sequence": "RRIRWRPPRLPRPRPRPSQYPRP", "shrunken log2 fold change": -0.41}, {"sequence": "RRIRMRPPRLPRPRPRPEMYPRP", "shrunken log2 fold change": 0.216}, {"sequence": "RRIRGRPPRLPRPRPRPRVVPRP", "shrunken log2 fold change": 0.667}, {"sequence": "RRIRIRPPRLPRPRPRPFCFPRP", "shrunken log2 fold change": -0.33}, {"sequence": "RRIRLRPPRLPRPRPRPIQVPRP", "shrunken log2 fold change": -0.072}, {"sequence": "RRIRRRPPRLPRPRPRPFQDPRP", "shrunken log2 fold change": -0.15}, {"sequence": "RRIRMRPPRLPRPRPRPEYTPRP", "shrunken log2 fold change": -0.0269}, {"sequence": "RRIRSRPPRLPRPRPRPKGCPRP", "shrunken log2 fold change": 0.134}, {"sequence": "RRIRIRPPRLPRPRPRPLFEPRP", "shrunken log2 fold change": -0.251}, {"sequence": "RRIRLRPPRLPRPRPRPQWIPRP", "shrunken log2 fold change": -0.0288}, {"sequence": "RRIRQRPPRLPRPRPRPNPKPRP", "shrunken log2 fold change": -0.00731}, {"sequence": "RRIRRRPPRLPRPRPRPEWFPRP", "shrunken log2 fold change": -0.159}, {"sequence": "RRIRQRPPRLPRPRPRPILHPRP", "shrunken log2 fold change": -1.25}, {"sequence": "RRIRFRPPRLPRPRPRPPQTPRP", "shrunken log2 fold change": 0.473}, {"sequence": "RRIRYRPPRLPRPRPRPWASPRP", "shrunken log2 fold change": -0.154}, {"sequence": "RRIRVRPPRLPRPRPRPGDNPRP", "shrunken log2 fold change": 0.174}, {"sequence": "RRIRERPPRLPRPRPRPLAHPRP", "shrunken log2 fold change": -0.368}, {"sequence": "RRIRHRPPRLPRPRPRPCTFPRP", "shrunken log2 fold change": -0.456}, {"sequence": "RRIRKRPPRLPRPRPRPNGPPRP", "shrunken log2 fold change": -0.00695}, {"sequence": "RRIRTRPPRLPRPRPRPYTDPRP", "shrunken log2 fold change": -0.448}, {"sequence": "RRIRVRPPRLPRPRPRPVSWPRP", "shrunken log2 fold change": 0.469}, {"sequence": "RRIRCRPPRLPRPRPRPSCCPRP", "shrunken log2 fold change": 0.0437}]}]}
